Measurements taken from a protein production outcome set (Wang et al. 2014).

Assay: label from the status in PepcDB records

Row | Sequence | protein production
1 | MSTSQGSPNWPRAERVARLEVLETQILARPAEVYAEVLALWPGLSAAVPSPASPAPDSCPGPSELAAQATALQLLSRCAVLLGEDGAAANHAETGRRLAHDLGLRSLEARCLEVLGVVRGRQGDVKQAAWLLRRSLYLLHALGDTPGQGRLLGRVGDLLERLEEYPQALLFYRAGLAQLPAARPVTAAVQVGLARTLHQLGEYAESQELAAQALAVCQEVGLPQLEAQVQLQQALTQLALGELDASRRHAEQAQALAAPRHAEQAQALAAPLEHTVPGAAAWVLGEAALVRGDLAQAREGLGRAEELANTPPLLARVRGSQSRLYEQLGDPAQALRCLREQRELEQQHRARLAEQRAGLLAEQIRYEVLRREAELQRKRRNERAQAASALRETRVELSRQASHDQLTGLANRSFFYTRARQALDLLAPGRSLGLIVADIDHLKAINDRFGYAVGDLLITELARRLCEAVRPGDLVGRLSGDEFVMLLSDLASPGDLRLVAERLLQQLREPCVCGTELVVPTVSLGYVVAPQDGGDVELLQKRADLALFQAKAQGRNMAVAFAGDMSAEEEERRMLSQDLRHAVRHGQLQLHYQGIFLLPGQRLSGFEALVRWPHPKRGMIPPDRFIALAEESRLILELGRWVLDEACRQARAWQLPERGLTMAVNVSALQFEQSDFVAGVRACLEQHGLPGHSLVLELTESMVHRDPRLAKQTLRELQALGVKVAMDDFGTGYSSLSMLKSLPFGLLKIDREFLQDLSAASEQFAASQQFIEVMVRLAHNLQMRVVAEGVETAEQYDLLCGMGCDEAQGYWLARPLPPAEAAALLPAGAPDSPWPTQSPSSQQARQESPRQSLSED | failed
2 | MGKMEPFRATGDGLFIMNEGNFQYGNATLSYYDPETKKVENEIFYRANAMKLGDVAQSMIVRDTIGWVVVNNSHVIFAISTNTFKEVGRITGLTSPRYIHFISDEKAYITQIWDYRIFIVNPKTYQITGYIECPDMTMETGSTEQMVQYGKYVYVNCWSYQNRILKIDTTTDKVVDQLTVGIQPTSLVMDKNFKMWTITDGGYKGSPYGYEEPSLYRIDAETFKIEKQFKFQLGDAPSEVQLNGAGDELYWINKDIWRMSVDEERVPVRPFLKYRDTKYYGLTVSPKNGDVYVADAIDYQQQGMIYRYTEDGELVDEFYVGIIPGAFCWKLEHHHHHH | not failed
3 | MKQPTLAVIMTCHNRRNTTLACLQALYQQKNHFDVYLTDDGSTDGTAEFIKAEYPDVKIFQGDGNLFWVGGMHLAFGEAIKNQYDYYLWLNDDTFLEADALEKLLQVHENLAVEGYGQSIVVGSTQDPITKQATYGGAVKSKKWYSNKFEFLEPTSDVQKCDAMYGNCVLIPHSVTLKVGNIDTAFIHSLGDLDYALRARNLGLEHHHHHH | failed
4 | MKSHQLLKAPFQHGFLFSRPLVMYCFKTCHDSAWKHYIRFLKYRHEKLYEEALSEIDNAIKVCNSIAFRYFLLSEKLTVLGYMGKHEEGIKLYSHLRGRMRNVSPNLRSIFIGNLLNYCSMYLHNAFECLGRIKPEAHHLEKSSYAFILIGKARYMARTGNVKEAIESYEKALKILQEIPHPSGIIACLNDMAWYTKEKDPEKAKDMAEEALYWNGYFFDAPRFYALDTLFEVQRTTSDPAIVETARLIEIASEGLKDSASDLLKKDQRLFLRLNNSLYRNTKSLQRFLRRNTTSIKHLSEITGVARNRLSDILNGKTQKIRGETLRKIAKAFEKSNILSFPPPLLSEWVKLRIEENFSAALREIKTKRLEERQILFLSTYTALIDRKFLSRKERLKKAYTLLEDIESFADFMAKDHRTMEFVVSMVKAHPFVEGRKEAVKRALARMKRKRLERFVLRYIEMKESDRKLLDRFLRNYGRYDGVRFGIRLKGPEVVREFAKKYSLKVQPLFAAFWCEEDGRVRRRLERVLKHMVLN | failed
5 | MTPMPSSVKPVEGRSVLIEWQDGHSSLYENVYLREHCQCAECVHEWTGEKLISRERIPADIRPVSVSAVGNYALSIRFSDGHGTGVYSYELLRKICPCPLCKA | failed
6 | MFQIGEHNMILIYKLTLTKLTEDELKKDFATIPSWATHLDLSNNRLGETSNEELIRVFAKIPGWISHIKLRFNNLGQKNGKDLAKAFAKIPISVTTLDLGSNQLGKKSGEELANAFAGIPTSVTRLILSQNELYKRTGGELATAFAKIPSSVTHLVLVNNGLGEKNGKELATAFANIPSSVTTLDLALNDLSKIKSTELAVIFTKIPTSVTQLDLSHNNLNKKSGKNLAKIFANIPTSVTNLNLSCNELGKKSGKGLAAAFAKIPTSVTDLNIEDNDLDNRTGKELAMAFAHIPAFVNTLRLGDNNLGNKSGEELAEIFAKIPLSVTSLDLRYNELGKRNGKELAIAFAKIPSSVTNLNLKFNHLGKITGEELAMAFANIPTNVDSLVLANNELGAKSGEELAKIFSKIPASITSLNMGNDWFAVIEKLSQQKMVLSTITHVVIDYSSAQEHSAKLKLLATVFPNLNKVTFMDIHGNNALAGQNPIEEAKWLKLCGIKNSVPSLLSQALFFVAKNKEHRSIQDYPSLLPKELTDSISSLLKC | failed
7 | MKILAIINPISGIGSKSNIPSLIADVFAHDPHELFITYSQRAGHARELAAQAVEKHYDCVIAVGGDGTVNEIAQSLRYTDVVLGIVPKGSGNGLARALKLPLTVGKALEVIRAGHVRTIDCCEADSR | failed
8 | MRKPIEHTADIAYEISGNSYEELLEEARNILLEEEGIVLDTEEKEKMYPLEETEDAFFDTVNDWILEISKGWAPWRIKREGNELKVTFRKIRKKEGTEIKALTYHLLKFERDGDVLKTKVVFDT | not failed
9 | MEKPGGFWIPKKSNKESSWEELAFAEDDAAGSLWPPRSYTCSFCRREFKSAQALGGHMNVHRRDRARLKQADDQYLFPKSSSSPEYPSHKDSDNIHETSCYTLVFNTKPNYFKTQHSCVIDLSSSSSLPYLTPSRVSSGLPGKQHTSSSPPSFVVEPSKNSKYIPSSSPWSCPSTVVEQKSCDLYEIPAMEGEKKRKTESDVPKIGHKAKLSLGNTTDLSVSMNLVIHQSFPITAHGSDEEIGRVDIRKRRRRHESPSQQSIFISSLSCKSDIITRNEESKHKGDRFEDLDLELRLGTDPPKGI | failed
10 | MNRREVRCAFSASKAARAQLLLRGKVRLEPLPTRPRTVLGLDASYSAKDGVGVGAAVLISLETLEPVDCRVYISRVCIPYIPGLLAFRELAVMAPAAAALSAEADVVMVDGHGIAHPRRFGIASHVGVILERPSIGVAKKKLVGTLVEGPGGMYVVQDGERLAIVLGTRPREVYVSPGHRITLEEAASIARATIRPGGWMPEPTRLADVISKALKTIIGGQSLINSALASLCRVKLGPRLEELERPLRRAGLEVELEHHHHHH | failed
11 | MTGQELRQLLLDKWGYSYDVQFRRTQGKIFLQVMWKYLEQASFPMNETEYQEHLDSVANYLHALGGAVQVKTFITQTKERPRLGKAVSIPLDLGERASEWIILEHHHHHH | not failed
12 | MDVGESNERVKDDSALQASPRSPLSSIDLAIDGAMNASIEQLYHNVCEMESSDDQSPSRASFISYGAESRIDLELRHLVGDVGEEGESKKEIILEKKEESNGEGSLSQKKPLSNGKKVAKTSPNNPKMPGSRISSRKSPDLGKVSVDEESPELGVVLLKQARELVSSGENLNKALDLALRAVKVFEKCGEGEKQLGLNLVMSLHILAAIYAGLGRYNDAVPVLERSIEIPMIEDGEDHALAKFAGCMQLGDMYGLMGQVENSIMLYTAGLEIQRQVLGESDARVGETCRYLAEAHVQAMQFEEASRLCQMALDIHKENGAAATASIEEAADRKLMGLICDAKGDYEVALEHYVLASMAMSSQNHREDVAAVDCSIGDAYMSLARFDEAIFAYQKALAVFKQGKGETHSSVALVYVRLADLYNKIGKTRDSKSYCENALKIYLKPTPGTPMEEVATGFIEISAIYQSMNELDQALKLLRRALKIYANAPGQQNTIAGIEAQMGVVTYMMGNYSESYDIFKSAISKFRNSGEKKTALFGIALNQMGLACVQRYAINEAADLFEEAKTILEKECGPYHPDTLAVYSNLAGTYDAMGRLDDAIEILEYVVGTREEKLGTANPEVEDEKQRLAALLKEAGRGRSKRNRALLTLLDNNPEIANGQRPVY | failed
13 | MIDVIGTDAGAPASLPAAQQALIRAAEQIAAPRRLQPALETWLESPVPLIDSDDPRHLVEVLSALSAQTNAVVLASGDPLWFGIGRILAERLGPERLRFHPAPTSLQLAFARIGRPWQDARWVSLHGRDPEPLARELQTRPRALAVLTDPGRGGADAVRRCLRSSGLEASYQLWLGENLGHADERMRLIPADAPLPEPLQPLLVALLIAEEPSIPNSRALPLFGLEDGLYLQHPDHPGLMTKREARIQLLADLDLPDQGVLWDLGAGTGSIGLEALRLRPQLRLLAVERRAGGAALIQANAKRLEVMPSAVVETDALSLLSADLPDGLDQPDRVLLGGGGPHREALLKAVLQRLRPSGIVVIPLATLEAVATLRPLMEQSGLTVQLNQLQAWRGQPLSDGTRLAPMNPILSLKGT | failed
14 | EVSYAKERVRLITASGRTHDLTVELAVDPSQREQGLMYRRQMAPDHGMLFDFGETRPVMMWMKNTYLPLDMLFIASDGTIRTIHENAVPHSEAIIDSREPVAYVLELNAGTVKRLGVSPGDRLEGAGLPATKRAN | not failed
15 | MSTPRPSLTLTLLQAREAAMSFFRPSLNQHGLTEQQWRVIRILRQQGEMESYQLANQACILRPSMTGVLARLERDGIVRRWKAPKDQRRVYVNLTEKGQQCFVSMSGDMEKNYQRIQERFGEEKLAQLLELLNELKKIKP | not failed
16 | MPHPATMFLLLTMAVVFLSWICDIYGLKVTLPQSGEDIRVQSLLSPEGIRWWLRNAIKNFTGFAPLGMVIIAMFGLGVAQHSGFIDACIRLGVGNRKEKRKVILWVIVLGLLSNVIGDGGYIILLPIAAMLFQWVGLHPIAGIVTAYVSVACGYSANIVLSTMDPLLAHTTQEAALTLMGYQGNTEPLCNYFFMSASTVVITGIVYWVTQKWLLPNLGKYEGSVKVEAYRPLSRKERRALMVAVVVAGIYVALILWLTFSSYGILRGVNGGLMHSPFIAGILFLLSLGAGFTGMAYGFSSGRYRSDNDVIEGLTQPIKLLGVYFVIAFFAAQMFACFEYSHLDKCLAIMGADLLSSFEPAPLSALILFILFTAFINLIMVSATSKWAFMSFIFIPMFAQMGISPDVTQCAFRIGDSSTNAITPFLFYMPLVLTYMRQYDKQITYGSLLKYTWRYSLCILAAWTLLFIVWYLLKIPMGL | failed
17 | MDSLTSLTSFVRTAETLSFVQAARLLGISASAVGKNVARLEHKLGVRLFNRSTRNVSLTAEGAAFLTRCQSILEQIQEAESELTSSLSQPTGKLRISLPVIGYRLLLPALTAFSRLYPQVELDLDFSDRLVNLIDEGVDVAIRSGELADSRLIARKLGGFRFVLCASPAYLAEYGAPDSPAELAAHKCIFFRFPATGLIQPWELRGMRLTGDFRSAAVMTVNNIEAAIRLSAAGMGIAYVPDFVVREAMDEGQLQEVLPGCCIKDGHFSVLWPASRYLSPRIRCFIDFMAAAEIPLSPASAPPPLVSNNLR | failed
18 | MSDKLLIMFHGVGSNGVDLLPIAQYWQRQIDGLDIAYPNAPFPFMHSHEVFEWFSLTGITPQNRYERIVDAREYFDQTILRTLQEHKFQGDLSQLIFCGFSQGTIMCLDAIVSGRWSVAGCIGFSGRLASPVESDVRTTKISLMHGEADAVIAVEEGREAYHTLNEAGFDVQLETYTGLGHSVNELELKKGLEFLQAL | failed
19 | MMVDTGVDHRAVSSHDGPDAGRRVFGAADPRFACVVRAFASMFPGRRFGGGALAVYLDGQPVVDVWKGWADRAGWVPWSADSAPMVFSATKGMTATVIHRLADRGLIDYEAPVAEYWPAFGANGKATLTVRDVMRHQAGLSGLRGATQQDLLDHVVMEERLAAAVPGRLLGKSAYHALTFGWLMSGLARAVTGKDMRLLFREELAEPLDTDGLHLGRPPADAPTRVAEIIMPQDIAANAVLTCAMRRLAHRFSGGFRSMYFPGAIAAVQGEAPLLDAEIPAANGVATARALARMYGAIANGGEIDGIRFLSRELVTGLTRNRRQVLPDRNLLVPLNFHLGYHGMPIGNVMPGFGHVGLGGSIGWTDPETGVAFALVHNRLLSPLVMTDHAGFVGIYHLIRQAAAQARKRGYQPVTPFGAPYSEPGAAAG | failed
